{
  "source": "patent US20100285028A1",
  "molecular_target": "von Willebrand factor (mouse) (UniProt Q8CIZ8)",
  "sequence (Q8CIZ8 764-2813 limits assumed)": "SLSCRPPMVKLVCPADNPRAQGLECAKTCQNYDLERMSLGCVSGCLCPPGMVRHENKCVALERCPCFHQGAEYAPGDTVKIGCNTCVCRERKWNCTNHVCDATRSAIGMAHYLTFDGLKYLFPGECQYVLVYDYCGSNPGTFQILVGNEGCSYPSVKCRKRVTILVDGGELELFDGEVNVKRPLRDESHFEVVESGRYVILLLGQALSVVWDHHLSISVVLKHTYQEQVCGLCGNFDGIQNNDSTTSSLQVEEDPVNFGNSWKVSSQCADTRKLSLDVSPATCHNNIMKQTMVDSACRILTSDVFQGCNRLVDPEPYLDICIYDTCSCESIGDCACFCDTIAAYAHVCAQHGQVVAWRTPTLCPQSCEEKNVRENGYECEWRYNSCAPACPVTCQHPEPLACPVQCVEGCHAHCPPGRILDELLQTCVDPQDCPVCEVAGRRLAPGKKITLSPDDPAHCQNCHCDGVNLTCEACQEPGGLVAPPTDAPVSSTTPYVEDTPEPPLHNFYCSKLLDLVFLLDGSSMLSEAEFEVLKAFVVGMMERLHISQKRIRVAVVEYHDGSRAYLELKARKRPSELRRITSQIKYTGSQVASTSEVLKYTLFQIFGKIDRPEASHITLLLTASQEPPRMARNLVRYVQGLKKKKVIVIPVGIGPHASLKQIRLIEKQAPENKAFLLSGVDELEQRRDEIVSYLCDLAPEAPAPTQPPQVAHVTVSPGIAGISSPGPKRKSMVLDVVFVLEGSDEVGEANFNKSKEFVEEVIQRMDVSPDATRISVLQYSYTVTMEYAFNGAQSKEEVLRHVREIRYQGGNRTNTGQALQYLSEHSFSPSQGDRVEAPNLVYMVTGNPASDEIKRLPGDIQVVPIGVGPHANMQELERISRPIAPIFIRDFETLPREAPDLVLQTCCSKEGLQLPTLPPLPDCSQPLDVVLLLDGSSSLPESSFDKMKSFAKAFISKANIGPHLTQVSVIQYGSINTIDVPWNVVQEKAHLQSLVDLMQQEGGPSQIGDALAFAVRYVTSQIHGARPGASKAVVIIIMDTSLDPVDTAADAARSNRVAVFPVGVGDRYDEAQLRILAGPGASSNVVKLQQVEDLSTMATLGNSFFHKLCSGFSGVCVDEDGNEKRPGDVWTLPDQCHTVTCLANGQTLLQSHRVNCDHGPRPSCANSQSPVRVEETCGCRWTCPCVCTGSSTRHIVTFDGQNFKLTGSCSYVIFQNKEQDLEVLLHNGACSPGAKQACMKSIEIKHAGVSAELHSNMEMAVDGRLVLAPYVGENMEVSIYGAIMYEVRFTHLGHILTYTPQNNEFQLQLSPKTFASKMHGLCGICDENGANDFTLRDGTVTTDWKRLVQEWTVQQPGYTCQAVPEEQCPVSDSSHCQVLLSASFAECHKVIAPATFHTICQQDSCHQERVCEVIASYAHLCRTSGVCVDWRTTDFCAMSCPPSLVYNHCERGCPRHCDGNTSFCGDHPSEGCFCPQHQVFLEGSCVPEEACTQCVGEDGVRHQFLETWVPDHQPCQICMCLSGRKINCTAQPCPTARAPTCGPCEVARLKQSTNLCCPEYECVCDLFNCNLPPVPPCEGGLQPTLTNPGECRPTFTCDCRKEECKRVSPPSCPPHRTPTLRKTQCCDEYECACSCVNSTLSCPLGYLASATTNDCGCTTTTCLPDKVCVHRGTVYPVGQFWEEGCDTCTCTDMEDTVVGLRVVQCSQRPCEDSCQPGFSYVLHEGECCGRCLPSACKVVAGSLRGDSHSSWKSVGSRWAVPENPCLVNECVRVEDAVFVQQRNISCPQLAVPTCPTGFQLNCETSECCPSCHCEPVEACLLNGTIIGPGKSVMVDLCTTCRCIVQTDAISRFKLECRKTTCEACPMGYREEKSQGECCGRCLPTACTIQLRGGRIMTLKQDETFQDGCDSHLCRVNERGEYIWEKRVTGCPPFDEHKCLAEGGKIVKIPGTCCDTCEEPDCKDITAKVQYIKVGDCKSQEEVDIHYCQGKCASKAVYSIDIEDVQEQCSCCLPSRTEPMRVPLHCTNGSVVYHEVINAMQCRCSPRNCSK",
  "assay": "cell-based or functional assay",
  "data": [
    {"substance": "Asgr-1 chain of the Ashwell receptor (from UniProt P34927 1-284)", "values": [
      {"measurement": "circulating plasma vWF abundance in mice lacking Asgr-1", "value": 1.5, "unit": "fold"}
    ]}
  ]
}
